Assay results as given in IntAct's records for PubMed 31515488.

B1: Isoform 1 of Cyclin-dependent kinase 2-interacting protein (Homo sapiens), Q9BW66-1 (parent)
chain: MEAKTLGTVTPRKPVLSVSARKIKDNAADWHNLILKWETLNDAGFTTANNIANLKISLLNKDKIELDSSSPASKENEEKVCLEYNEELEKLCEELQATLDGLTKIQVKMEKLSSTTKGICELENYHYGEESKRPPLFHTWPTTHFYEVSHKLLEMYRKELLLKRTVAKELAHTGDPDLTLSYLSMWLHQPYVESDSRLHLESMLLETGHRAL
partner: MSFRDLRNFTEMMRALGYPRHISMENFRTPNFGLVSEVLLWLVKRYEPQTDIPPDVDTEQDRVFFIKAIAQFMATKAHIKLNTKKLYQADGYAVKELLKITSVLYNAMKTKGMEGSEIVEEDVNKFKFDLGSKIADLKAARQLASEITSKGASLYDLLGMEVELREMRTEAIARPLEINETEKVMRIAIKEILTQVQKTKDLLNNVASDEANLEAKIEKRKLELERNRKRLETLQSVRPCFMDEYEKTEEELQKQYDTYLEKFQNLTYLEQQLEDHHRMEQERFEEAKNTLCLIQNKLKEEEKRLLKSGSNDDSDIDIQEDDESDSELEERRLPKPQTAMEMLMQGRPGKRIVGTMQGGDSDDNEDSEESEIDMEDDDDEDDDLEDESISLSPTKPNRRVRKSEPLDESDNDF
B2: Double-strand-break repair protein rad21 homolog (Homo sapiens), O60216 (parent)
chain: MFYAHFVLSKRGPLAKIWLAAHWDKKLTKAHVFECNLESSVESIISPKVKMALRTSGHLLLGVVRIYHRKAKYLLADCNEAFIKIKMAFRPGVVDLPEENREAAYNAITLPEEFHDFDQPLPDLDDIDVAQQFSLNQSRVEEITMREEVGNISILQENDFGDFGMDDREIMREGSAFEDDDMLVSTTTSNLLLESEQSTSNLNEKINHLEYEDQYKDDNFGEGNDGGILDDKLISNNDGGIFDDPPALSEAGVMLPEQPAHDDMDEDDNVSMGGPDSPDSVDPVEPMPTMTDQTTLVPNEEEAFALEPIDITVKETKAKRKRKLIVDSVKELDSKTIRAQLSDYSDIVTTLDLAPPTKKLMMWKETGGVEKLFSLPAQPLWNNRLLKLFTRCLTPLVPEDLRKRRKGGEADNLDEFLKEFENPEVPREDQQQQHQQRDVIDEPIIEEPSRLQESVMEASRTNIDESAMPPPPPQGVKRKAGQIDPEPVMPPQQVEQMEIPPVELPPEEPPNICQLIPELELLPEKEKEKEKEKEDDEEEEDEDASGGDQDQEERRWNKRTQQMLHGLQRALAKTGAESISLLELCRNTNRKQAAAKFYSFLVLKKQQAIELTQEEPYSDIIATPGPRFHII
B3: Geminin (Homo sapiens), O75496 (parent)
chain: MNPSMKQKQEEIKENIKNSSVPRRTLKMIQPSASGSLVGRENELSAGLSKRKHRNDHLTSTTSSPGVIVPESSENKNLGGVTQESFDLMIKENPSSQYWKEVAEKRRKALYEALKENEKLHKEIEQKDNEIARLKKENKELAEVAEHVQYMAELIERLNGEPLDNFESLDNQEFDSEEETVEDSLVEDSEIGTCAEGTVSSSTDAKPCI
B4: E3 ubiquitin-protein ligase LNX (Homo sapiens), Q8TBB1 (parent)
chain: MNQPESANDPEPLCAVCGQAHSLEENHFYSYPEEVDDDLICHICLQALLDPLDTPCGHTYCTLCLTNFLVEKDFCPMDRKPLVLQHCKKSSILVNKLLNKLLVTCPFREHCTQVLQRCDLEHHFQTSCKGASHYGLTKDRKRRSQDGCPDGCASLTATAPSPEVSAAATISLMTDEPGLDNPAYVSSAEDGQPAISPVDSGRSNRTRARPFERSTIRSRSFKKINRALSVLRRTKSGSAVANHADQGRENSENTTAPEVFPRLYHLIPDGEITSIKINRVDPSESLSIRLVGGSETPLVHIIIQHIYRDGVIARDGRLLPGDIILKVNGMDISNVPHNYAVRLLRQPCQVLWLTVMREQKFRSRNNGQAPDAYRPRDDSFHVILNKSSPEEQLGIKLVRKVDEPGVFIFNVLDGGVAYRHGQLEENDRVLAINGHDLRYGSPESAAHLIQASERRVHLVVSRQVRQRSPDIFQEAGWNSNGSWSPGPGERSNTPKPLHPTITCHEKVVNIQKDPGESLGMTVAGGASHREWDLPIYVISVEPGGVISRDGRIKTGDILLNVDGVELTEVSRSEAVALLKRTSSSIVLKALEVKEYEPQEDCSSPAALDSNHNMAPPSDWSPSWVMWLELPRCLYNCKDIVLRRNTAGSLGFCIVGGYEEYNGNKPFFIKSIVEGTPAYNDGRIRCGDILLAVNGRSTSGMIHACLARLLKELKGRITLTIVSWPGTFL
partner: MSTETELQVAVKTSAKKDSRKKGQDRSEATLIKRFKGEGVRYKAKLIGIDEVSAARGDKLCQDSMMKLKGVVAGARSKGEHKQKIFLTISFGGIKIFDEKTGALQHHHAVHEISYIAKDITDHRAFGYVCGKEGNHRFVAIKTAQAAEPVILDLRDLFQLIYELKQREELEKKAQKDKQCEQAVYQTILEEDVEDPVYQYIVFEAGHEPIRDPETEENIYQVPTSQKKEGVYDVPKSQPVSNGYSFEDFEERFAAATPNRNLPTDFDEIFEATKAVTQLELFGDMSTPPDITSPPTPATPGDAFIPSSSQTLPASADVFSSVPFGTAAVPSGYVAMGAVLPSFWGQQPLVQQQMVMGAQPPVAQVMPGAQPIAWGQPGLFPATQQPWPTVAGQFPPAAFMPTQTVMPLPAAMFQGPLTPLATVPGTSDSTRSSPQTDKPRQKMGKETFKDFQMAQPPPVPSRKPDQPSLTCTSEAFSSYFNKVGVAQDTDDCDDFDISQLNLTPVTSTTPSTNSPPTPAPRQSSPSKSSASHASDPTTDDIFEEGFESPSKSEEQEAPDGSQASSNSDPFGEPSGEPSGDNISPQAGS
B5: Transcription factor 12 (Homo sapiens), Q99081-3 (parent)
chain: MNPQQQRMAAIGTDKELSDLLDFSAMFSPPVNSGKTRPTTLGSSQFSGSGIDERGGTTSWGTSGQPSPSYDSSRGFTDSPHYSDHLNDSRLGAHEGLSPTPFMNSNLMGKTSERGSFSLYSRDTGLPGCQSSLLRQDLGLGSPAQLSSSGKPGTAYYSFSATSSRRRPLHDSAALDPLQAKKVRKVPPGLPSSVYAPSPNSDDFNRESPSYPSPKPPTSMFASTFFMQDGTHNSSDLWSSSNGMSQPGFGGILGTSTSHMSQSSSYGNLHSHDRLSYPPHSVSPTDINTSLPPMSSFHRGSTSSSPYVAASHTPPINGSDSILGTRGNAAGSSQTGDALGKALASIYSPDHTSSSFPSNPSTPVGSPSPLTGTSQWPRPGGQAPSSPSYENSLHSLKNRVEQQLHEHLQDAMSFLKDVCEQSRMEDRLDRLDDAIHVLRNHAVGPSTSLPAGHSDIHSLLGPSHNAPIGSLNSNYGGSSLVASSRSASMVGTHREDSVSLNGNHSVLSSTVTTSSTDLNHKTQENYRGGLQSQSGTVVTTEIKTENKEKDENLHEPPSSDDMKSDDESSQKDIKVSSRGRTSSTNEDEDLNPEQKIEREKERRMANNARERLRVRDINEAFKELGRMCQLHLKSEKPQTKLLILHQAVAVILSLEQQVRERNLNPKAACLKRREEEKVSAVSAEPPTTLPGTHPGLSETTNPMGHM
partner: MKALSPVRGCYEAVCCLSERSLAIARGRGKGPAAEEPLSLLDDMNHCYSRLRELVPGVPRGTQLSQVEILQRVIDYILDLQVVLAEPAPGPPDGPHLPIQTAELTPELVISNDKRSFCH

Variants of: B1
Conditions: with clua1_human CLUAP1, Q96AJ1

effect of a mutation on the interaction	Variant
with no effect	D177N

Variants of: B1
Conditions: with clua1_human CLUAP1, Q96AJ1
Remark: another data set of the same source

effect of a mutation on the interaction	Variant
disrupting interaction strength	R164H

Variants of: B2
Conditions: with fhl3_human FHL3, Q13643
Sequence of fhl3_human FHL3, Q13643 (Q13643 whole entry): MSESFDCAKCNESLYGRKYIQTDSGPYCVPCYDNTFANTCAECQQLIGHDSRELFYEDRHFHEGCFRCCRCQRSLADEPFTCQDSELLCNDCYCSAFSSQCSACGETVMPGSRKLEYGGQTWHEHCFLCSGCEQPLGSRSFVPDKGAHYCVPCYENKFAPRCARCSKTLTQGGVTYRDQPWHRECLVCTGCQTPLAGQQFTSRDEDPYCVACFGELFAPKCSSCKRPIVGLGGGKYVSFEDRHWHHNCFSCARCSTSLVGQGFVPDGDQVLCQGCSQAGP

effect of a mutation on the interaction	Variant
with no effect	D414E
with no effect	D95H
with no effect	M362L
with no effect	I45V
with no effect	P426S
with no effect	P443L

Variants of: B3
Conditions: with zn439_human ZNF439, Q8NDP4
Sequence of zn439_human ZNF439, Q8NDP4 (Q8NDP4 whole entry): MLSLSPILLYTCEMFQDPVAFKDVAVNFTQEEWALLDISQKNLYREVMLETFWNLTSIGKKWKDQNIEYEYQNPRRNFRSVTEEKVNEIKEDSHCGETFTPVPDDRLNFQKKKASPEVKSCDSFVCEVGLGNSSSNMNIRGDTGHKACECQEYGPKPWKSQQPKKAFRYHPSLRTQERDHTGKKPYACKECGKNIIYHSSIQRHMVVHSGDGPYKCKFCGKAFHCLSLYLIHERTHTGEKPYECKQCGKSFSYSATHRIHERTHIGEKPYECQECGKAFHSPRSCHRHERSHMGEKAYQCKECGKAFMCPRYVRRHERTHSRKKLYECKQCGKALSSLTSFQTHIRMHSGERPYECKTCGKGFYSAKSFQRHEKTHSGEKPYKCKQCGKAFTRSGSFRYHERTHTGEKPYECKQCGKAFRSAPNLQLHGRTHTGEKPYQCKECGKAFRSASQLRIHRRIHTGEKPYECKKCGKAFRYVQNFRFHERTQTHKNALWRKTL

effect of a mutation on the interaction	Variant
with no effect	E167D
with no effect	N15H

Variants of: B4
Conditions: with dab1_human DAB1, O75553

effect of a mutation on the interaction	Variant
with no effect	R342H

Variants of: B5
Conditions: with id3_human ID3, Q02535

effect of a mutation on the interaction	Variant
with no effect	A482V
